Twelve molecules from patent US20250326842A1 can be followed below.

B1: BGA50 (antibody, V domains shown)
VH: EVQLQQSGPEPVKPGASVKISCKASGYSFTGYFLNWVKQSHGKSLEWIGRISPYNGDTFYNQKFKGKATLTVDKSSSTAHMELLSLTSEDSAVYYCGRSGSFTLFYAMDYWGQGTSVTVSS
VL: DIVMSQSPSSLAVSVGENITMTCKSSQSLFHSGNQKNYLAWYQQKPGQSPKLLIYWASTRESGVPDRFTGSGSETDFTLTISSVKAEDLAVYFCQQYYSYPITFGAGTKLELK
B2: BGA86 (antibody, human IgG1, V domains shown)
VH: EVQLQESGGGSVKPGGSLQLSCAASGFTFSSYGMSWIRQSPEKKLEWVAEISSGGTYTYYPDTVTGRFTISRDNAKNTLYLEMSSLRSEDTAMYYCARGDPFGYWGQGTLVTVSA
VL: DVVMTQSHKFVSTSVGGRVSITCKASQDVMTAVAWYQQKPGQSPKLLIYSTSYRFTGVPDRFTGSGSGTDFTLTINGVQAEDLAVYSCQQHYSTPRTFGGGTKLEIK
B3: BGA38 (antibody, V domains shown)
VH: EVQLQESGAEHVMPGASVKMSCKAAGYTFTDYWMYWVKQRPGQGLEWIGTIDTSDHKTSYNQKFRGKATLTVDESSSTAYMQLSSLTSEDSAVYYCARDFIITVNYPVVDYWGQGTSVTVSS
VL: QNVLTQSPAIMSASPGEKVTITCSAGSSVNYMHWFQQKPGTSPKLWIYSTSNLASGVPARFSGSGSGTSYSLTISRMEAEDAATYYCQQRSSLPFTFGSGTKLEIK
B4: BGA12 (antibody, V domains shown)
VH: QVQLQQSGPEVVRPGVSVKISCKGSGYTFTDYAMHWVKQSHGKSLEWIGVVLTHNDNTNYNQKFKAKATMTVDRSSSTAYMELARLTSEDSAIYYCAREVYYDFDDGNYFPMDYWGQGTSVTVSS
VL: DIVMSQSPSSLAVSVGEKVTMSCKSSQSLLYSDNQKNYLAWYQQKPGQSPKLLIYWASTRESGVPVRFTGSGSGTDFTLTISSVKAEDLAVYYCQQYYSYHTFGGGTKLEIK
B5: BGA501 (antibody, V domains shown)
VH: QVQLVQSGAEVKKPGASVKVSCKASGYSFTGYFLNWVRQAPGQGLEWIGRISPYQGDTFYNQKFKGRVTMTTDKSTSTAYMELRSLRSDDTAVYYCGRSGSFTLFYAIDYWGQGTLVTVSS
VL: DIVMTQSPSSLAVSLGERATINCKSSQSLFHSGNQKNYLAWYQQKPGQSPKLLIYWASTRESGVPDRFSGSGSGTDFTLTISSLQAEDVAVYYCQQYYSYPITFGQGTKLEIK
B6: BGA502 (antibody, V domains shown)
VH: B5 VH with I108L
VL: B5 VL
B7: BGA503 (antibody, V domains shown)
VH: B5 VH with T72V, I108L
VL: B5 VL
B8: BGA381 (antibody, V domains shown)
VH: EVQLVQSGAEVKKPGASVKVSCKASGYTFTDYWIYWVRQAPGQGLEWMGTIDTSDHKTSYNQKFRGRVTMTRDTSTSTVYMELSSLRSEDTAVYYCARDFIITVNYPVVDYWGQGTLVTVSS
VL: QIVLTQSPATLSLSPGERATLSCSAGSSVNYMHWFQQKPGQAPRLLIYSTSNLASGVPARFSGSGSGTDYTLTISSLEPEDFAVYYCQQRSSLPFTFGQGTKLEIK
B9: BGA383 (antibody, V domains shown)
VH: B8 VH with H56A
VL: B8 VL
B10: BGA382 (antibody, V domains shown)
VH: B8 VH
VL: B8 VL with I2N, M32L
B11: BGA861 (antibody, V domains shown)
VH: EVQLVESGGGLVKPGGSLRLSCAASGFTFSSYGISWVRQAPGKGLEWVSEISSGGTYTYYPDTVTGRFTISRDNAKNTLYLQMSSLRAEDTAVYYCARGDPFGYWGQGTLVTVSS
VL: DIQMTQSPSSLSASVGDRVTITCKASQDVMTAVAWYQQKPGKAPKLLIYSTSYRFTGVPSRFSGSGSGTDFTLTISSLQPEDFATYYCQQHYSTPRTFGGGTKVEIK
B12: BGA862 (antibody, V domains shown)
VH: B11 VH with I34L
VL: B11 VL

Substitutions are numbered along the chain they refer to.

In one assay the target is Cyno PVRIG recombinant protein (cynomolgus monkey). Description: ELISA, chimeric antibody on recombinant cyno PVRIG. (In general: ELISA stands for enzyme-linked immunosorbent assay.)
Sequence of Cyno PVRIG recombinant protein (cynomolgus monkey) (Q6DKI7 other isoform, or with tags, fused parts or gaps limits assumed): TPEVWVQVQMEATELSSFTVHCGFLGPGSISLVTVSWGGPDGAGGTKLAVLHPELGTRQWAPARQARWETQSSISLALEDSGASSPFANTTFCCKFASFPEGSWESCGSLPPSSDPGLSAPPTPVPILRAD
Turning to B1, the concentration giving a half-maximal response (EC50) came out at 0.0273 nM.
As to B2, the EC50 was 0.0449 nM.
With B3, the EC50 was determined as 0.223 nM.
Same read-out and setting: as for B4, the figure is 0.039 nM.

The next assay has the same target. Nature of the assay: SPR, antibody captured via anti-human Fc, cyno PVRIG analyte. (SPR reads the build-up and loss of mass on a sensor chip optically.)
In the case of B1, the dissociation constant Kd was 0.73 nM, the koff was 0.00588 s⁻¹ and the on-rate constant (kon) was 8.05e+06 M⁻¹ s⁻¹.
Take B2: the Kd is 0.674 nM, the off-rate constant (koff) came out at 0.00133 s⁻¹ and the kon turned out to be 1.97e+06 M⁻¹ s⁻¹.
As to B3, the dissociation constant (Kd) was 0.109 nM, the koff is 0.000157 s⁻¹ and the association rate constant (kon) stood at 1.44e+06 M⁻¹ s⁻¹.
Regarding B4, the Kd worked out at 6.31 nM, the off-rate (koff) was found to be 0.000354 s⁻¹ and the kon came to 56100 M⁻¹ s⁻¹.

The target is the same in the next assay. Described as above. The source holds these as a separate data set.
Regarding B1, the Kd turned out to be 0.347 nM, the dissociation rate constant (koff) was determined as 0.0032 s⁻¹ and the association rate constant (kon) is 9.21e+06 M⁻¹ s⁻¹.
Regarding B2, the Kd was 0.552 nM, the off-rate constant (koff) was 0.0017 s⁻¹ and the on-rate constant (kon) was 3.08e+06 M⁻¹ s⁻¹.
Consider B5, for which the dissociation constant (Kd) worked out at 0.426 nM, the koff was found to be 0.00267 s⁻¹ and the kon turned out to be 6.27e+06 M⁻¹ s⁻¹.
In the case of B6, the equilibrium dissociation constant (Kd) was 0.433 nM, the koff stood at 0.00266 s⁻¹ and the on-rate (kon) stood at 6.16e+06 M⁻¹ s⁻¹.
The matching figures for B7: 0.396 nM, 0.00294 s⁻¹ and 7.44e+06 M⁻¹ s⁻¹.
Take B3: the Kd amounted to 0.0507 nM, the off-rate (koff) stood at 0.00021 s⁻¹ and the kon was found to be 4.15e+06 M⁻¹ s⁻¹.
Turning to B8, the dissociation constant Kd was determined as 0.0738 nM, the koff stood at 0.000367 s⁻¹ and the on-rate (kon) worked out at 4.98e+06 M⁻¹ s⁻¹.
The matching figures for B9: 0.0658 nM, 0.000345 s⁻¹ and 5.25e+06 M⁻¹ s⁻¹.
Turning to B10, the equilibrium dissociation constant (Kd) is 0.0518 nM, the off-rate constant (koff) worked out at 0.000243 s⁻¹ and the kon turned out to be 4.7e+06 M⁻¹ s⁻¹.
Take B11: the dissociation constant (Kd) was 1.01 nM, the dissociation rate constant (koff) came to 0.00221 s⁻¹ and the on-rate (kon) amounted to 2.18e+06 M⁻¹ s⁻¹.
As for B12, the Kd is 2.16 nM, the koff is 0.00483 s⁻¹ and the kon is 2.23e+06 M⁻¹ s⁻¹.

As usually defined, the EC50 is the concentration needed to bring the measured effect to its halfway point. The term Kd denotes the concentration at which binding is half-saturated. What is called koff is the rate constant with which the complex falls apart. In general, kon refers to the rate constant with which the complex forms.
